Measurements reported in the nanobody polyreactivity screen of Harvey et al. (2022).

Assay: yeast display, Sf9 membrane polyspecificity reagent, FACS + sequencing; frameworks hold sequencing errors
Outline: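 Genes from sorted yeast were amplified by colony PCR, read by MiSeq 2 × 250 sequencing and filtered on CDR length. These cells carried a synthetic nanobody library in Saccharomyces cerevisiae BJ5465 and were sorted by FACS into low and high (top ~1%) gates on anti-HA and streptavidin fluorescence. Polyreactivity is labelled according to the gate of origin.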

Sequence	polyreactivity (PSR sort gate)
QVQLVESGGGLVQAGGSLRLSCAASGRTFSVNAMGWYRQAPGKERELVAAISSGGGTNYADSVKGRFTISRDNAKNNVYLQMNSLKPEDTAVYYCAARTFGYPSHRKEMEYWGQGTQVTVSS	low polyreactivity
QVQLVESGGGLVQAGGSLRLSCAASGITCTFNTMGWYRQAPGKERELVAGITNGGSTYYADSVKGRFTISRDNAKNTVYLQMNSLKPEDTAVYYCNAQRRLRYGWFGPYDYWGQGTQVTVSS	low polyreactivity
QVQLVESGGGLVQAGGSLRLSCAASGRTFWKYARGWYRQAPGKERELVAAISSSGGNTYYADSVKGRFTISRDNAKNTVYLQMNSLKPEDTAVYYCAARLPRGAYYYWGQGTQVTVSS	high polyreactivity
QVQHVESRGGLVQAGGSLRLSCAASGRTFFWYAMGWYRQAPGKERELVADISSSGGSTYYADSVKGRFTISRDNAKNTVYLQMNSLKPEDTAVYYCAALSPWWRGGYNYWGQGTQVTVSS	high polyreactivity
QVQLVESGGGLVQAGGSLRLSCPASGSTFWYYAMGWYRQAPGKERELVAAITRGGSTNYADSVKGRFTISRDNAKNTVYLQMNSLKPEDTAVYYCAKDGPQYRYYYWGQGTQVTVSS	high polyreactivity
QVQLVESVGGLVQAGGSLRLSCAASGLIFPWYAMGWYRQAPGKERELVAAIRWRGGGTYYADSVKGRFTISRDNAKNTVYLQMNSLKPEDTAVYYCAARRPAKGMGYWGQGTQVTVSS	high polyreactivity
QVQLVESGGGLVQAGCSLRLSCAASGSTFFSNAMGWYRQAPGKFRELVAGITFSGGSTYYADSVKGRFTISRDYAKNTVFLQMNSLKPEDTAVYYCAASPPYKLVWWRRMDYWGQGTQVTVSS	low polyreactivity
QVQLVESGGRLVQAGGSLRLSCAASGFIFFTYAMGWYRQAPGKERELVAVITRGGSTYYADSVKGRFTISRDNAKNTVYLQMNSLKPEDTAVYYCAARRYRYFDGTVPLDYWGQGTQVSVSS	high polyreactivity
QDQLVESGGGLVQAGGSLRLSCAASGSTFAFKTMGWYRQAPGKERELVAGISSNGGRTYYADSVKGRFTISRDNAKNTVYLQMNSLKPEDTAVYYCNALRRYVSVRPTKSDYWGQGTQVTVSS	high polyreactivity
QFQLVYSGGGLVQAGGSLRLSCAASGRTYGIYAMVWYRQAPGKERDLVAAISSDASTSYADSLKGRFTISRDNAKITVYLQMNSLKPEDTAVYYCGADPGTYYEWGYVYWGQGTQVTVSS	low polyreactivity
QVQLVESGGGLVQAGGSLRLSCAASGFTFRHYAMGWYRQAPGKARQLVAAITKSGDSTYYADSVKWRFTISRDIAKKTVYLQMNSLNPEDTEVYYCATPYTLSRADNYWGQGTQVTVSS	low polyreactivity
QVQLVESGGGLVQAGGRLRLSCAASGSIFGANTMVWYRQAPGKERELVAAISSGGNTYYADSVKGRFTISRDNAKNTVYLQMNSLKPEDTAVYYCNAQTRYRYQYGYLGGTGYNYWGQGTQVTVSS	low polyreactivity
QVQLVESGGGLVQAGGSLRLSCAASASIFILNAMGWYRPAPGKERELVAAISWSGGRTNYADSVKGRFTISRDTAKNTVYLHMNSLKPEETAVYFCAARVTPYRGFYYWGQGTQVTVSS	high polyreactivity
QVQLVESGGRLVQAGGSLRLSSAASGSTFSFYVMRWYRQAPGKERELVAAISWSSVGTYSADSVKGRFTISRDNAKNTVYLQMNSLKPEDTAVYYCAADSYRRVAKHGYWGQGTQVTVSS	high polyreactivity
QVQLVESGGGLVQAGGSLRLSCAASGFIFEGYAMGWYRQAPGKERELVATISRSGGRTNYADSVKGRFTISRDNAKNTVYLQMNSLKPEDTAVYYCAAAYLRRVAYDYWGQGTQVTVSS	high polyreactivity
QVQLVESGGGLVQAGGSLRLSCAASGSIRYYAMGWYIQAPGKERELVAAISSRGTNTYYADSVKGRFTISRDNAKNTVYLQMNSLKPEDTAVYYCNAVVGLGYNYWGQGTQVTVSS	high polyreactivity
QVQLVESGGGLVQAGGSLRLSCAASGFTFSLYAMGWYRQAPGKERELVAAISRSGGSTYYADSVKGRFTISRDNAKKTVYLQMNSLKPEDTAVYYCNAPYSVSSIRYDYWGQGTQVTVSS	high polyreactivity
QVQLVESGGGLVQAGGSLRLSCAASGRTFAYNAMGWYRQAPGKDRELVAAITRRGGSTYYADSVKGRFTISRDNAKNTVYLQMNSLKPEDTAVYDCAKVLGGLPHGEVLDEYDYWGQGTQVTVSS	low polyreactivity
QVQLVESGGGLVQAGGSLRLSCAASGYTFPRYAMGWYRQAPGKERELVATINWTGSNTYADSVKGRFTISRDNAKNTVYLQMNSLKPEDTAVYYCAKDSWNVRSGRYNYWGQGTQVTVSS	low polyreactivity
QVQLVESGGGLVQAGGSLRLSCAASGIIFSEYAMGWYRQAPGKERELVAAISKSGGRTYYADSVKGRFTISRDNAKNTVYLQMNSLKPEDTAVYYCAARHAPILGDHGDYDYWGQGTQVTVSS	high polyreactivity
QVQLVESGGGLVQAGGSLRLSCAASGSIFGDYAMGWYRQAPGKEREFVAGITRRGGRTYYADSVKGRFTISRDNAKNTVYLQMHSLKPEDTAVYYCNAVYSSSLRSKYDYWGQGTQVTVSS	high polyreactivity
QVQLVESGGGLVQAGGSLRLSCAASGRIFRVNALGWYRQATRKERELVAGITQGDGSTYYADSVKGRFTISRDNAKNTVYLQMNSLKPEDTAVYYCAAEGFYTTGSPYSGGLDYWGQGTQVTVSS	low polyreactivity

Sequence	polyreactivity (PSR sort gate)
QVQLVESGGGLVQAGGSLRLSCAASGFIFGHNTMGWYRQAPGKERELVARITSSGGGTNYADSVKGRFTISRDNAKNTVYLQMNSLKPEDTAVYYCAAELLYWGYYDYDYWGQGTQVTVSS	high polyreactivity
QVQLVESGGGLVQAGGSLRLSCAAYGRTFGRYAMGWYRQAPGKERELVAVINGGGSTYYADSVKGRFTISRDNAKNTVYLQMNSLKPEDTAVDYCAVGGYTRTGGWFDYWGQGTQVTVSS	high polyreactivity
QVQLVDSGGGVVQAGGSLRLSCAASGFIFSGYAMGWYRPAPGKERELVAVISRGGGSTSYADSVKGRFTISRDNAKNTVYLQMNSLKPEDTAVYYCAAVYYPLSVDNDYWGQGTQVTVSS	high polyreactivity
QVQLQESGGGLVQAGGSLRLSCAASGNIYDADIMGWYRQAPGKERELVTSITDGGSTNYADSVKGRFTISRDNAKNTVYLQMNSLKPEDTAVYYCAAIAYPDIPTSFDYNTDYSYWGQGTQVTVSS	low polyreactivity
QVQLVESGGGLVQAGGSLRLSCAASGFIFYRYLMGWYRQAPGKERELVAAISRSGDRTYYADSVKGRFTISRDNAKNTVYLQMNSLKPEDTAVYDCAAALYYFSRGYWGQGTQVTVSS	high polyreactivity
QVQLVESGGGLVQAGGSLRLSCAASGRTFPSYAMGWYRQAPGTERELVAAITVSGGNTYYAHSVKGRFTISRDNAKNTVYLQMNSLKPEDTAVYYCNTPSYVSWYVHYYYWGQGTQVTVSS	low polyreactivity
QVQLEESGGGLVQAGGSLRLSCAASGGTFLAYALGWYRQAPGKERELVATITSGGSTNYADSVKGRFTISRDNAKNTVYLQMNSLKPEDTAVYYCAASGRDFIAESPYDYWGQGTQVTVSS	low polyreactivity
QVQLVESGGGLVQAGGSLRLSCAASGRTFGTYAMGWYRQAPGKERELVAAISTRDGSTYYADSVKGRFTISRDNAKNTVYLQMNSLKPEDTAVYYCNATWSVPSGQYDYWGQGTQVTVSS	low polyreactivity
QVQLVESGGCLVQAGGSLRLSCAASGRIFPGYAMGWYRQAPGKESEFVAAITASGGTTYYADSVKGRFTISRDNAKNTVYLQMNCLKPEDTAVYYCAKYRYTVAGYNYWGQGTQVTVSS	high polyreactivity
QVQLVESGGGLVQAGGSLRLSCAASGSIFPPYTMGWYRQAPGKERELVAAISWGGGSTYYADSVKGRFTISRDNAKNTVYLQMNSLKPEDTAVYYCAAGRYYRGYYWGQGTQVTVSS	high polyreactivity
QVQLVESGGGLVQAGGSLRLSCAASGFIFKAYAMGWYRHAPGKERELVAAITSSGGRTYDADSVKGRFTISRDNAKNTVYLQKNSLKPEDTAVYYCNARGVLRTSLYRYDYWGQGTQVTVSS	high polyreactivity
QVQLVESGGGLVQAGGSLRLTCAASGSTFWAYAMGWYRQAPGKERELVAAITTGGGRTFYADSVKGRFTISRDNAKNTVYLQMNSLIPEDTAVYYCAAVSQSYRMYYWGQGTQVTVSS	low polyreactivity
QVQLVESCGGLVQAGGSLRLSCAASGSTLYYYAMGWYRQAPGKERELVASISWSGGRTYYADSVKGRFTISRDNAKYTVYLQMNSLKPEDTAVYYCNAVPYRGYDYWGQGTQVTVSS	low polyreactivity
QVQLVESGGGLVQAGGSLRLSCAASGRTFGRYAMGWYRQAPWKERELVAAITVGGGSTYYADSVKGRFTISRDNAKNTVYLQMNSLKPEDTAVYYCNALHTYTYRYDYYYWGQGTQVTVSS	high polyreactivity
QVQLVESVVGLVQAGGSLRLRCAASGIIFSKYAMGWYIQEPGKERELVARISWRGGDTYYADSVKGRFTISRDNAKNTVYLKMNSMKQEDTSVYYFNARIWGRYFSYTRFDYWGQCTQVTVSS	high polyreactivity
QVQLVESGGGLVQAGGSLRLSCAASGITFYVYAMGWYRQAPGKEREFVAAISTRDGTTYADSLKGRFTISRDNAKNTVYLQMNSLKPEDTAVYYCAAAYYYDGQQGDFDYWGQGTQVTVSS	low polyreactivity
QVQLVESGGGLVQAGGSLRLSCAASGITLRLYAMGWYRQAPGKERELVAAISKRGGSTYYADSVKWRFTISRDNAKNTVYLQMNSQKPEDTAVYYCAADSGWEHRYDYWGQGTQVTVSS	high polyreactivity
QVQLVESGVGLVQAGGSLRLSCAASGRIFGVYVMGWYRQAPGKERELVAGISPSGGSTYYADSVKGRFTISRDNAKNTVYLQMNSLKPEDTAVYYCAAVLRIRRPRYGYWGQGTQVTVSS	high polyreactivity
QVQLVESGGGLVQAGGSLRLSCAGSGRIFVSYAMGWYRQAPGKERELVAAITRSGGSTYYADSVKGRFTISRDNAKNTVYLQMNSLKPEDTAVYYCNAYIPRTRYRSGYWGQGTQVTVSS	high polyreactivity
QVQLVESGGGLVQAGGSLRLSCAASRRIFYAYAMGWYRQAPGKEIELLATITGIGGSTYADSVKGRFTISRDNAKNTVNLQMNSLKPEDTAVYYCNAERGVYWGRYPYKYDYLGQGTQVTVSS	low polyreactivity
QVQLVESGGGLVQAGGSLRLSCAASGLIFDDYAMGWYRQAPGKERELVAAISLSGGSTFYADSVKGRFTISRDNAKNTVYLQMNSLKAEDTAVYYCAAQARRAYVQTRMYYWGQGTQVTVSS	high polyreactivity
